Experimental data reported in IntAct's records for PubMed 31515488.

B1: Cyclin-D1-binding protein 1 (Homo sapiens), O95273 (parent)
chain: MASATAPAAAVPTLASPLEQLRHLAEELRLLLPRVRVGEAQETTEEFNREMFWRRLNEAAVTVSREATTLTIVFSQLPLPSPQETQKFCEQVHAAIKAFIAVYYLLPKDQGITLRKLVRGATLDIVDGMAQLMEVLSVTPTQSPENNDLISYNSVWVACQQMPQIPRDNKAAALLMLTKNVDFVKDAHEEMEQAVEECDPYSGLLNDTEENNSDNHNHEDDVLGFPSNQDLYWSEDDQELIIPCLALVRASKACLKKIRMLVAENGKKDQVAQLDDIVDISDEISPSVDDLALSIYPPMCHLTVRINSAKLVSVLKKALEITKASHVTPQPEDSWIPLLINAIDHCMNRIKELTQSELEL
partner: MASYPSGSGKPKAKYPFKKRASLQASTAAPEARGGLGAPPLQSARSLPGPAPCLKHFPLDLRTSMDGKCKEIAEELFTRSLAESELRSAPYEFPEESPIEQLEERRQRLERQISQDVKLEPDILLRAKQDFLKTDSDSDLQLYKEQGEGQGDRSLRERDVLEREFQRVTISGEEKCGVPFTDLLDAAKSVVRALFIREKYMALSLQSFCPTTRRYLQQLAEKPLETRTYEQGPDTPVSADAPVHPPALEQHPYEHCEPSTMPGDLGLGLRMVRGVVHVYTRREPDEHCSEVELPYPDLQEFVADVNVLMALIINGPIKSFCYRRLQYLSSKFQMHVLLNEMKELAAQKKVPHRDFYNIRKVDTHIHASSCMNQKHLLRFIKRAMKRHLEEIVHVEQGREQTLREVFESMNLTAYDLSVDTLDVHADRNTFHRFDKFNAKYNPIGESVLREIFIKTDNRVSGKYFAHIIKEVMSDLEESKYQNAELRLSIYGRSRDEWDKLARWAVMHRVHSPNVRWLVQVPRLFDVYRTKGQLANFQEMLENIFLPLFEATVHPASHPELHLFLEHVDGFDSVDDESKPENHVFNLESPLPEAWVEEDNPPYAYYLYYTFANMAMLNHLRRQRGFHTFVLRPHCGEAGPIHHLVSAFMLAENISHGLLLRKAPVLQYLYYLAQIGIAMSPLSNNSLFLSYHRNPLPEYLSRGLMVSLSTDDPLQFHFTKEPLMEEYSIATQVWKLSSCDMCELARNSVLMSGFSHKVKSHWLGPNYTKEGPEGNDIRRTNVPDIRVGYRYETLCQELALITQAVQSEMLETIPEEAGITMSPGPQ
B2: U3 small nucleolar RNA-associated protein 14 homolog A (Homo sapiens), Q9BVJ6 (parent)
chain: MTANRLAESLLALSQQEELADLPKDYLLSESEDEGDNDGERKHQKLLEAISSLDGKNRRKLAERSEASLKVSEFNVSSEGSGEKLVLADLLEPVKTSSSLATVKKQLSRVKSKKTVELPLNKEEIERIHREVAFNKTAQVLSKWDPVVLKNRQAEQLVFPLEKEEPAIAPIEHVLSGWKARTPLEQEIFNLLHKNKQPVTDPLLTPVEKASLRAMSLEEAKMRRAELQRARALQSYYEAKARREKKIKSKKYHKVVKKGKAKKALKEFEQLRKVNPAAALEELEKIEKARMMERMSLKHQNSGKWAKSKAIMAKYDLEARQAMQEQLSKNKELTQKLQVASESEEEEGGTEDVEELLVPDVVNEVQMNADGPNPWMLRSCTSDTKEAATQEDPEQLPELEAHGVSESEGEERPVAEEEILLREFEERRSLRKRSELSQDAEPAGSQETKDSGSQEVLSELRVLSQKLKENHQSRKQKASSEGTIPQVQREEPAPEEEEPLLLQRPERVQTLEELEELGKEECFQNKELPRPVLEGQQSERTPNNRPDAPKEKKKKEQMIDLQNLLTTQSPSVKSLAVPTIEELEDEEERNHRQMIKEAFAGDDVIRDFLKEKREAVEASKPKDVDLTLPGWGEWGGVGLKPSAKKRRRFLIKAPEGPPRKDKNLPNVIINEKRNIHAAAHQVRVLPYPFTHHWQFERTIQTPIGSTWNTQRAFQKLTTPKVVTKPGHIINPIKAEDVGYRSSSRSDLSVIQRNPKRITTRHKKQLKKCSVD
partner: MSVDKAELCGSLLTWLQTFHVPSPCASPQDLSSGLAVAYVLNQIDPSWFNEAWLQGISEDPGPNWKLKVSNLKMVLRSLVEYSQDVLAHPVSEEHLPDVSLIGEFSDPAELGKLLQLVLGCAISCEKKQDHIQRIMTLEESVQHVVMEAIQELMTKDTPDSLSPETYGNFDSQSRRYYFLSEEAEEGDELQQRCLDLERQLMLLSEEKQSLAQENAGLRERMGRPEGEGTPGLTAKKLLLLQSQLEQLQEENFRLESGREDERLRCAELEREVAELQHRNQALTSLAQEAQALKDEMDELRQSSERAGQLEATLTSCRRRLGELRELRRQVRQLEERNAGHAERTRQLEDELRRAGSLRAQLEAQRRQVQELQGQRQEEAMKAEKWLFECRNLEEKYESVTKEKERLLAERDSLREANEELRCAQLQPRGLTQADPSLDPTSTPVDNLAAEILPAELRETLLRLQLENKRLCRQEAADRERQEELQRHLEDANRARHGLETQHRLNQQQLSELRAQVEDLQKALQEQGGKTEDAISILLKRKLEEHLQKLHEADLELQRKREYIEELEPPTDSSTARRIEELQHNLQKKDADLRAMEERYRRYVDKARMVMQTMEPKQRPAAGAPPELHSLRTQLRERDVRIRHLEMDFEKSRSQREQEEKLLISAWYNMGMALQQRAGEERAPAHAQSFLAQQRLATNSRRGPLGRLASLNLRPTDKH
B3: Spindle and kinetochore-associated protein 3 (Homo sapiens), Q8IX90 (parent)
chain: MDPIRSFCGKLRSLASTLDCETARLQRALDGEESDFEDYPMRILYDLHSEVQTLKDDVNILLDKARLENQEGIDFIKATKVLMEKNSMDIMKIREYFQKYGYSPRVKKNSVHEQEAINSDPELSNCENFQKTDVKDDLSDPPVASSCISEKSPRSPQLSDFGLERYIVSQVLPNPPQAVNNYKEEPVIVTPPTKQSLVKVLKTPKCALKMDDFECVTPKLEHFGISEYTMCLNEDYTMGLKNARNNKSEEAIDTESRLNDNVFATPSPIIQQLEKSDAEYTNSPLVPTFCTPGLKIPSTKNSIALVSTNYPLSKTNSSSNDLEVEDRTSLVLNSDTCFENLTDPSSPTISSYENLLRTPTPPEVTKIPEDILQLLSKYNSNLATPIAIKAVPPSKRFLKHGQNIRDVSNKEN
B4: Tetratricopeptide repeat protein 5 (Homo sapiens), Q8N0Z6 (parent)
chain: MMADEEEEVKPILQKLQELVDQLYSFRDCYFETHSVEDAGRKQQDVQKEMEKTLQQMEEVVGSVQGKAQVLMLTGKALNVTPDYSPKAEELLSKAVKLEPELVEAWNQLGEVYWKKGDVAAAHTCFSGALTHCRNKVSLQNLSMVLRQLRTDTEDEHSHHVMDSVRQAKLAVQMDVHDGRSWYILGNSYLSLYFSTGQNPKISQQALSAYAQAEKVDRKASSNPDLHLNRATLHKYEESYGEALEGFSRAAALDPAWPEPRQREQQLLEFLDRLTSLLESKGKVKTKKLQSMLGSLRPAHLGPCSDGHYQSASGQKVTLELKPLSTLQPGVNSGAVILGKVVFSLTTEEKVPFTFGLVDSDGPCYAVMVYNIVQSWGVLIGDSVAIPEPNLRLHRIQHKGKDYSFSSVRVETPLLLVVNGKPQGSSSQAVATVASRPQCE
B5: U3 small nucleolar RNA-associated protein 14 homolog A (Homo sapiens), Q9BVJ6 (parent)
chain: B2 chain
B6: Cysteine-rich C-terminal protein 1 (Homo sapiens), Q9UGL9 (parent)
chain: MSSQQSAVSAKGFSKGSSQGPAPCPAPAPTPAPASSSSCCGSGRGCCGDSGCCGSSSTSCCCFPRRRRRQRSSGCCCCGGGSQRSQRSNNRSSGCCSGC
partner: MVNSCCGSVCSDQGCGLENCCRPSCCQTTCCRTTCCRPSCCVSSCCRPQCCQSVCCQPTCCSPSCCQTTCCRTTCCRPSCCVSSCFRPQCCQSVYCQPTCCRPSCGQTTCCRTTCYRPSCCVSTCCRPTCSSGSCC
B7: L-fucose dehydrogenase (Homo sapiens), Q9BPX1 (parent)
chain: MATGTRYAGKVVVVTGGGRGIGAGIVRAFVNSGARVVICDKDESGGRALEQELPGAVFILCDVTQEDDVKTLVSETIRRFGRLDCVVNNAGHHPPPQRPEETSAQGFRQLLELNLLGTYTLTKLALPYLRKSQGNVINISSLVGAIGQAQAVPYVATKGAVTAMTKALALDESPYGVRVNCISPGNIWTPLWEELAALMPDPRATIREGMLAQPLGRMGQPAEVGAAAVFLASEANFCTGIELLVTGGAELGYGCKASRSTPVDAPDIPS

Variants of: B1
Conditions: with ampd2_human AMPD2, Q01433

| effect of a mutation on the interaction | Variant |
| --- | --- |
| disrupting interaction strength | I277T |

Variants of: B2
Conditions: with hook2_human HOOK2, Q96ED9

| effect of a mutation on the interaction | Variant |
| --- | --- |
| with no effect | V256M |

Variants of: B3
Conditions: with ska1_human SKA1, Q96BD8
Sequence of ska1_human SKA1, Q96BD8 (Q96BD8 whole entry): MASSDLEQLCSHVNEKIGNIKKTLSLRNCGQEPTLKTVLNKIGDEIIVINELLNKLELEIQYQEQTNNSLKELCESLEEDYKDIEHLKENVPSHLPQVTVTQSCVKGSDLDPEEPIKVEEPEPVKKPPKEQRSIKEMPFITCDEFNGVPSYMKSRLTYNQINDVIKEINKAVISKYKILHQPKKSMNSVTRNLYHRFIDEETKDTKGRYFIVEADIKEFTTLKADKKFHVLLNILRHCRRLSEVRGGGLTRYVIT

| Variant | effect of a mutation on the interaction |
| --- | --- |
| D335E | with no effect |
| R396M | with no effect |

Results, then the variant that gave them:

| effect of a mutation on the interaction | Variant |
| --- | --- |
| with no effect | T348M |
| with no effect | V187I |
| with no effect | A28V |
| with no effect | T254A |

Variants of: B4
Conditions: with kcc2d_human CAMK2D

| effect of a mutation on the interaction | Variant |
| --- | --- |
| with no effect | G424V |

Variants of: B5
Conditions: with ldoc1_human LDOC1, O95751
Sequence of ldoc1_human LDOC1, O95751 (O95751 whole entry): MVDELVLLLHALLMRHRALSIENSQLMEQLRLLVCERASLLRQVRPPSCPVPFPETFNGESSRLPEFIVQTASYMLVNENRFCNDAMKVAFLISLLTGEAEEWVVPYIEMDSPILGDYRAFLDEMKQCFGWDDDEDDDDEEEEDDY

| effect of a mutation on the interaction | Variant |
| --- | --- |
| with no effect | V487A |
| with no effect | T579A |

Variants of: B5
Conditions: with cep70_human CEP70, Q8NHQ1
Sequence of cep70_human CEP70, Q8NHQ1 (Q8NHQ1 whole entry): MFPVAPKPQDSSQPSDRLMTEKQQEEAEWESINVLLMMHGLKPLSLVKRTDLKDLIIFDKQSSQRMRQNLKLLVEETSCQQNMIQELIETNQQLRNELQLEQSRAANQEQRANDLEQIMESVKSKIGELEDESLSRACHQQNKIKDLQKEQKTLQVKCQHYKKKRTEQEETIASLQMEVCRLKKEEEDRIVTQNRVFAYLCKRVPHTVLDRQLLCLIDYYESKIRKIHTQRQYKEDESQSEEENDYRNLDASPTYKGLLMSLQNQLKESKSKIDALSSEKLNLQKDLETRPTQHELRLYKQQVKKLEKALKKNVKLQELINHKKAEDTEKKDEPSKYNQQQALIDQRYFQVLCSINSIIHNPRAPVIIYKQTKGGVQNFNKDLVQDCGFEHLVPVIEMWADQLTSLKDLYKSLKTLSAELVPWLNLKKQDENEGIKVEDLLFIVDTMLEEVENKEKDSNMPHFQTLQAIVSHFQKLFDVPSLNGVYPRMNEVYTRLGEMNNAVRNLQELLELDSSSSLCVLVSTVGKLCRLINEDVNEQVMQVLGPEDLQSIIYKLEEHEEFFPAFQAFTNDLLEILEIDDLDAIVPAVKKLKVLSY

| effect of a mutation on the interaction | Variant |
| --- | --- |
| with no effect | V256M |

Variants of: B6
Conditions: with kra42_human KRTAP4-2, Q9BYR5

| effect of a mutation on the interaction | Variant |
| --- | --- |
| with no effect | G20S |

Variants of: B7
Conditions: with psa1_human PSMA1, P25786
Sequence of psa1_human PSMA1, P25786 (P25786 whole entry): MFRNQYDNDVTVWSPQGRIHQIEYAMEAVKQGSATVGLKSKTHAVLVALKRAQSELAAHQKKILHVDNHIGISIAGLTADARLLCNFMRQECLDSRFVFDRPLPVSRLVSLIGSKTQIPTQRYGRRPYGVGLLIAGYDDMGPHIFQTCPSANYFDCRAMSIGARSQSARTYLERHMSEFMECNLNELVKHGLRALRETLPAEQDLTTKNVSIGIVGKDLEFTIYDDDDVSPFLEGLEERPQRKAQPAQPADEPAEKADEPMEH

| effect of a mutation on the interaction | Variant |
| --- | --- |
| with no effect | G16W |
| with no effect | N31D |
| disrupting interaction strength | R130W |

Variants of: B7
Conditions: with phf1_human PHF1, O43189
Sequence of phf1_human PHF1, O43189 (O43189 whole entry): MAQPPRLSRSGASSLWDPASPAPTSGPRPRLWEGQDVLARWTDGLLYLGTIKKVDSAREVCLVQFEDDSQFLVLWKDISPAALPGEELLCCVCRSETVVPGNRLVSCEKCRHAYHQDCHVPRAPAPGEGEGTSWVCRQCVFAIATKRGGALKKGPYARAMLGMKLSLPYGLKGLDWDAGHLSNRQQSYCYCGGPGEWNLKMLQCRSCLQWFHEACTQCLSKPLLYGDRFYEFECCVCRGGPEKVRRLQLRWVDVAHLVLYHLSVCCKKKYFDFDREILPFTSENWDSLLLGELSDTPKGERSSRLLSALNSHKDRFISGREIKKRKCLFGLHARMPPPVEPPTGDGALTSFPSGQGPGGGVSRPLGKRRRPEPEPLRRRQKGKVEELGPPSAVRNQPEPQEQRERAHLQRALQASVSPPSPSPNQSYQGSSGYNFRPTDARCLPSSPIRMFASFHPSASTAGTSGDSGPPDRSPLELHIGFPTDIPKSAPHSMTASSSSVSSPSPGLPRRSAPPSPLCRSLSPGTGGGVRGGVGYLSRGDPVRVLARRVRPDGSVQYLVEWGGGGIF

| effect of a mutation on the interaction | Variant |
| --- | --- |
| with no effect | G16W |
| with no effect | N31D |

Variants of: B7
Conditions: with cah8_human CA8, P35219
Sequence of cah8_human CA8, P35219 (P35219 whole entry): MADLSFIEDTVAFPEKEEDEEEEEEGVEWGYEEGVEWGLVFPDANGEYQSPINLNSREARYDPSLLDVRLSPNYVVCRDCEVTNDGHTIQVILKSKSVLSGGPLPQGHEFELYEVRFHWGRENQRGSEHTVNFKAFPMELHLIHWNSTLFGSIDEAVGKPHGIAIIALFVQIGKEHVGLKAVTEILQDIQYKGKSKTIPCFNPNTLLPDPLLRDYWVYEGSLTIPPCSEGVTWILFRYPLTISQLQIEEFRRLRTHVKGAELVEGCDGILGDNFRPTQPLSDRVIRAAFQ

| effect of a mutation on the interaction | Variant |
| --- | --- |
| with no effect | G16W |
| with no effect | N31D |

Variants of: B7
Conditions: with sr1ip_human SREK1IP1, Q8N9Q2
Sequence of sr1ip_human SREK1IP1, Q8N9Q2 (Q8N9Q2 whole entry): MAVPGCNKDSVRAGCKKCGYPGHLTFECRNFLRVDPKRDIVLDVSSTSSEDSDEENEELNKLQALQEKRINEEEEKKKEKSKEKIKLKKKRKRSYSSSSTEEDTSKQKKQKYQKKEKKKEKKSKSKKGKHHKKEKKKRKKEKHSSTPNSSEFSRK

| effect of a mutation on the interaction | Variant |
| --- | --- |
| with no effect | N31D |
| disrupting interaction strength | R130W |

Variants of: B7
Conditions: with ntaq1_human NTAQ1, Q96HA8

| effect of a mutation on the interaction | Variant |
| --- | --- |
| with no effect | N31D |
| disrupting interaction strength | R130W |
